Assay results published in US10941182 (Amgen, dated 2021).
Starred links: 1 amine or outer side, 2 acyl side, 3 side chain; linkers in the order of their positions; H or OH if unused. Non-standard residues stand in square brackets, D forms with d. *: point of attachment. AC4Abu = α-carboxy-4-aminobutyric acid, O=C(C(CCN[*:1])C(=O)[*:3])[*:2]; Oic = O=C(O)[C@@H]1C[C@@H]2CCCC[C@@H]2N1; Phe(4-Cl) = N[C@@H](Cc1ccc(Cl)cc1)C(=O)O; d(β3hF) = N[C@@H](CC(=O)O)Cc1ccccc1; NMeR = CN[C@@H](CCCNC(=N)N)C(=O)O; Palmitoyl = CCCCCCCCCCCCCCCC(=O)*; β3hF = N[C@H](CC(=O)O)Cc1ccccc1; Cha = N[C@@H](CC1CCCCC1)C(=O)O; αMeP = C[C@@]1(C(=O)O)CCCN1; β3hP = O=C(O)C[C@@H]1CCCN1; Ac6c = NC1(C(=O)O)CCCCC1; Nle = CCCC[C@H](N)C(=O)O; Ac5c = NC1(C(=O)O)CCCC1; AEEA = NCCOCCOCC(=O)O; Aib = CC(C)(N)C(=O)O; Nip = nipecotic acid; βAla = NCCC(=O)O

T1: human APJ receptor (human, UniProt P35414 1-380)
T1 sequence (looked up): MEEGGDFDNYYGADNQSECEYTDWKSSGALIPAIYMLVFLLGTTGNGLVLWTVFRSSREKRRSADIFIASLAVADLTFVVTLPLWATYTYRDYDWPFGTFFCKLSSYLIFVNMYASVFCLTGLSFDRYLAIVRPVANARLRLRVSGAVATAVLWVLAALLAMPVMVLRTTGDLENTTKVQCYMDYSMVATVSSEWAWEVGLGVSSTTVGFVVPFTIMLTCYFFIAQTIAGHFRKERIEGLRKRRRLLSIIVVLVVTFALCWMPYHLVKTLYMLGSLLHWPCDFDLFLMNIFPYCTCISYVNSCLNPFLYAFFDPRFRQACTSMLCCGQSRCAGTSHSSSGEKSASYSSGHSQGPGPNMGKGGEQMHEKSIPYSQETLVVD

T2: rat APJ receptor (rat, UniProt Q9JHG3 1-377)
T2 sequence (looked up): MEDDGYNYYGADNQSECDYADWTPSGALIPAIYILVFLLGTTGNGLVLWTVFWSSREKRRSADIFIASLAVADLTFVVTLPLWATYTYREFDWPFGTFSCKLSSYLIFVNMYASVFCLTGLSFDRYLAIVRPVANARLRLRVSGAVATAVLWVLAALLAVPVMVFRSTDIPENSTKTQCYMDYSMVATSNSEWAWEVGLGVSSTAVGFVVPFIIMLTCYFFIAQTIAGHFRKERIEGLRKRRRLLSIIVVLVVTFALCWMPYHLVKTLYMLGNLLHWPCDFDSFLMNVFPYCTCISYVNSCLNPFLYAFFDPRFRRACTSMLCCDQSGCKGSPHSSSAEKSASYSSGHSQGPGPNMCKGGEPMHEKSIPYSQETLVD


Legend:
[1] = molecular target: T1, human APJ receptor; assay: cell-based or functional assay
[2] = molecular target: T2, rat APJ receptor; assay: cell-based or functional assay

| EC50 Human APJ Receptor [1] | EC50 Rat APJ Receptor [2] | Binder |
| --- | --- | --- |
| 1.8 nM | 4.9 nM | Palmitoyl-[AC4Abu][AEEA][AEEA][dQ]RP[NMeR][Cha]SHKG[Oic][Nle][β3hF]-OH (SMILES CCCCCCCCCCCCCCCC(=O)NCCC(C(=O)O)C(=O)NCCOCCOCC(=O)NCCOCCOCC(=O)N[C@H](CCC(N)=O)C(=O)N[C@@H](CCCNC(=N)N)C(=O)N1CCC[C@H]1C(=O)N(C)[C@@H](CCCNC(=N)N)C(=O)N[C@@H](CC1CCCCC1)C(=O)N[C@@H](CO)C(=O)N[C@@H](Cc1c[nH]cn1)C(=O)N[C@@H](CCCCN)C(=O)NCC(=O)N1[C@H](C(=O)N[C@@H](CCCC)C(=O)N[C@H](CC(=O)O)Cc2ccccc2)C[C@@H]2CCCC[C@@H]21) [SEQ ID NO: 578] |
| 6.73 nM | 22.3 nM | Palmitoyl-[AC4Abu][AEEA][AEEA][dQ]RP[NMeR][Cha]SHKG[Oic][Nle][Ac5c][Phe(4-Cl)]-OH (SMILES CCCCCCCCCCCCCCCC(=O)NCCC(C(=O)O)C(=O)NCCOCCOCC(=O)NCCOCCOCC(=O)N[C@H](CCC(N)=O)C(=O)N[C@@H](CCCNC(=N)N)C(=O)N1CCC[C@H]1C(=O)N(C)[C@@H](CCCNC(=N)N)C(=O)N[C@@H](CC1CCCCC1)C(=O)N[C@@H](CO)C(=O)N[C@@H](Cc1c[nH]cn1)C(=O)N[C@@H](CCCCN)C(=O)NCC(=O)N1[C@H](C(=O)N[C@@H](CCCC)C(=O)NC2(C(=O)N[C@@H](Cc3ccc(Cl)cc3)C(=O)O)CCCC2)C[C@@H]2CCCC[C@@H]21) [SEQ ID NO: 585] |
| 1.1 nM | 7.68 nM | Palmitoyl-[AC4Abu][AEEA][AEEA][dQ]RP[NMeR][Cha]SHKG[Oic][Nle][βAla][d(β3hF)]-OH (SMILES CCCCCCCCCCCCCCCC(=O)NCCC(C(=O)O)C(=O)NCCOCCOCC(=O)NCCOCCOCC(=O)N[C@H](CCC(N)=O)C(=O)N[C@@H](CCCNC(=N)N)C(=O)N1CCC[C@H]1C(=O)N(C)[C@@H](CCCNC(=N)N)C(=O)N[C@@H](CC1CCCCC1)C(=O)N[C@@H](CO)C(=O)N[C@@H](Cc1c[nH]cn1)C(=O)N[C@@H](CCCCN)C(=O)NCC(=O)N1[C@H](C(=O)N[C@@H](CCCC)C(=O)NCCC(=O)N[C@@H](CC(=O)O)Cc2ccccc2)C[C@@H]2CCCC[C@@H]21) [SEQ ID NO: 572] |
| 8.01 nM | 19.8 nM | Palmitoyl-[AC4Abu][AEEA][AEEA][dQ]RP[NMeR][Cha]SHKG[Oic][Nle][αMeP][d(β3hF)]-OH (SMILES CCCCCCCCCCCCCCCC(=O)NCCC(C(=O)O)C(=O)NCCOCCOCC(=O)NCCOCCOCC(=O)N[C@H](CCC(N)=O)C(=O)N[C@@H](CCCNC(=N)N)C(=O)N1CCC[C@H]1C(=O)N(C)[C@@H](CCCNC(=N)N)C(=O)N[C@@H](CC1CCCCC1)C(=O)N[C@@H](CO)C(=O)N[C@@H](Cc1c[nH]cn1)C(=O)N[C@@H](CCCCN)C(=O)NCC(=O)N1[C@H](C(=O)N[C@@H](CCCC)C(=O)N2CCC[C@@]2(C)C(=O)N[C@@H](CC(=O)O)Cc2ccccc2)C[C@@H]2CCCC[C@@H]21) [SEQ ID NO: 570] |
| 1.49 nM | 4.81 nM | Palmitoyl-[AC4Abu][AEEA][AEEA][dQ]RP[NMeR][Cha]SHKG[Oic][Nle][β3hP][d(β3hF)]-OH (SMILES CCCCCCCCCCCCCCCC(=O)NCCC(C(=O)O)C(=O)NCCOCCOCC(=O)NCCOCCOCC(=O)N[C@H](CCC(N)=O)C(=O)N[C@@H](CCCNC(=N)N)C(=O)N1CCC[C@H]1C(=O)N(C)[C@@H](CCCNC(=N)N)C(=O)N[C@@H](CC1CCCCC1)C(=O)N[C@@H](CO)C(=O)N[C@@H](Cc1c[nH]cn1)C(=O)N[C@@H](CCCCN)C(=O)NCC(=O)N1[C@H](C(=O)N[C@@H](CCCC)C(=O)N2CCC[C@H]2CC(=O)N[C@@H](CC(=O)O)Cc2ccccc2)C[C@@H]2CCCC[C@@H]21) [SEQ ID NO: 571] |
| 2.17 nM | 4.24 nM | Palmitoyl-[AC4Abu][AEEA][AEEA][dQ]RP[NMeR][Cha]SHKG[Oic][Nle][d(β3hF)]-OH (SMILES CCCCCCCCCCCCCCCC(=O)NCCC(C(=O)O)C(=O)NCCOCCOCC(=O)NCCOCCOCC(=O)N[C@H](CCC(N)=O)C(=O)N[C@@H](CCCNC(=N)N)C(=O)N1CCC[C@H]1C(=O)N(C)[C@@H](CCCNC(=N)N)C(=O)N[C@@H](CC1CCCCC1)C(=O)N[C@@H](CO)C(=O)N[C@@H](Cc1c[nH]cn1)C(=O)N[C@@H](CCCCN)C(=O)NCC(=O)N1[C@H](C(=O)N[C@@H](CCCC)C(=O)N[C@@H](CC(=O)O)Cc2ccccc2)C[C@@H]2CCCC[C@@H]21) [SEQ ID NO: 573] |
| 3.58 nM | 14.1 nM | Palmitoyl-[AC4Abu][AEEA][AEEA][dQ]RP[NMeR][Cha]SHKG[Oic][Nle]P[β3hF]-OH (SMILES CCCCCCCCCCCCCCCC(=O)NCCC(C(=O)O)C(=O)NCCOCCOCC(=O)NCCOCCOCC(=O)N[C@H](CCC(N)=O)C(=O)N[C@@H](CCCNC(=N)N)C(=O)N1CCC[C@H]1C(=O)N(C)[C@@H](CCCNC(=N)N)C(=O)N[C@@H](CC1CCCCC1)C(=O)N[C@@H](CO)C(=O)N[C@@H](Cc1c[nH]cn1)C(=O)N[C@@H](CCCCN)C(=O)NCC(=O)N1[C@H](C(=O)N[C@@H](CCCC)C(=O)N2CCC[C@H]2C(=O)N[C@H](CC(=O)O)Cc2ccccc2)C[C@@H]2CCCC[C@@H]21) [SEQ ID NO: 575] |
| 1.78 nM | 4.42 nM | Palmitoyl-[AC4Abu][AEEA][AEEA][dQ]RP[NMeR][Cha]SHKG[Oic][Nle][Aib][β3hF]-OH (SMILES CCCCCCCCCCCCCCCC(=O)NCCC(C(=O)O)C(=O)NCCOCCOCC(=O)NCCOCCOCC(=O)N[C@H](CCC(N)=O)C(=O)N[C@@H](CCCNC(=N)N)C(=O)N1CCC[C@H]1C(=O)N(C)[C@@H](CCCNC(=N)N)C(=O)N[C@@H](CC1CCCCC1)C(=O)N[C@@H](CO)C(=O)N[C@@H](Cc1c[nH]cn1)C(=O)N[C@@H](CCCCN)C(=O)NCC(=O)N1[C@H](C(=O)N[C@@H](CCCC)C(=O)NC(C)(C)C(=O)N[C@H](CC(=O)O)Cc2ccccc2)C[C@@H]2CCCC[C@@H]21) [SEQ ID NO: 577] |
| 0.462 nM | 0.736 nM | Palmitoyl-[AC4Abu][AEEA][AEEA][dQ]RP[NMeR][Cha]SHKG[Oic][Aib][Phe(4-Cl)]-OH (SMILES CCCCCCCCCCCCCCCC(=O)NCCC(C(=O)O)C(=O)NCCOCCOCC(=O)NCCOCCOCC(=O)N[C@H](CCC(N)=O)C(=O)N[C@@H](CCCNC(=N)N)C(=O)N1CCC[C@H]1C(=O)N(C)[C@@H](CCCNC(=N)N)C(=O)N[C@@H](CC1CCCCC1)C(=O)N[C@@H](CO)C(=O)N[C@@H](Cc1c[nH]cn1)C(=O)N[C@@H](CCCCN)C(=O)NCC(=O)N1[C@H](C(=O)NC(C)(C)C(=O)N[C@@H](Cc2ccc(Cl)cc2)C(=O)O)C[C@@H]2CCCC[C@@H]21) [SEQ ID NO: 580] |
| 22.9 nM | 52.2 nM | Palmitoyl-[AC4Abu][AEEA][AEEA][dQ]RP[NMeR][Cha]SHKG[Oic][Nle][Ac6c][Phe(4-Cl)]-OH (SMILES CCCCCCCCCCCCCCCC(=O)NCCC(C(=O)O)C(=O)NCCOCCOCC(=O)NCCOCCOCC(=O)N[C@H](CCC(N)=O)C(=O)N[C@@H](CCCNC(=N)N)C(=O)N1CCC[C@H]1C(=O)N(C)[C@@H](CCCNC(=N)N)C(=O)N[C@@H](CC1CCCCC1)C(=O)N[C@@H](CO)C(=O)N[C@@H](Cc1c[nH]cn1)C(=O)N[C@@H](CCCCN)C(=O)NCC(=O)N1[C@H](C(=O)N[C@@H](CCCC)C(=O)NC2(C(=O)N[C@@H](Cc3ccc(Cl)cc3)C(=O)O)CCCCC2)C[C@@H]2CCCC[C@@H]21) [SEQ ID NO: 584] |
| 7.96 nM | 23 nM | Palmitoyl-[AC4Abu][AEEA][AEEA][dQ]RP[NMeR][Cha]SHKG[Oic][Nle][Nip][Phe(4-Cl)]-OH [SEQ ID NO: 586] |
| 1 nM | 0.991 nM | Palmitoyl-[AC4Abu][AEEA][AEEA][dQ]RP[NMeR][Cha]SHKG[Oic][Nle][Aib][d(β3hF)]-OH (SMILES CCCCCCCCCCCCCCCC(=O)NCCC(C(=O)O)C(=O)NCCOCCOCC(=O)NCCOCCOCC(=O)N[C@H](CCC(N)=O)C(=O)N[C@@H](CCCNC(=N)N)C(=O)N1CCC[C@H]1C(=O)N(C)[C@@H](CCCNC(=N)N)C(=O)N[C@@H](CC1CCCCC1)C(=O)N[C@@H](CO)C(=O)N[C@@H](Cc1c[nH]cn1)C(=O)N[C@@H](CCCCN)C(=O)NCC(=O)N1[C@H](C(=O)N[C@@H](CCCC)C(=O)NC(C)(C)C(=O)N[C@@H](CC(=O)O)Cc2ccccc2)C[C@@H]2CCCC[C@@H]21) [SEQ ID NO: 569] |
